This passage reports Kd results from PMC13486704 (2026).

The target of data set [1] is HCMV protease (Human cytomegalovirus) (UniProt P16753). The settings on record: cited from earlier work.
Data set [2] deals with the molecule itself.

A word on the Kd: it is a measure of binding affinity in units of concentration. In the case of HCMV protease (from UniProt P16753), in data set [1], the Kd is 5.8 µM.

B1: HCMV protease (protein)
chain: MTMDEQQSQAVAPVYVGGFLARYDQSPDEAELLLPRDVVEHWLHAQGQGQPSLSVALPLNINHDDTAVVGHVAAMQSVRDGLFCLGCVTSPRFLEIVRRASEKSELVSRGPVSPLQPDKVVEFLSGSYAGLSLSSRRCDDVEAATSLSGSETTPFKHVALCSVGRRRGTLAVYGRDPEWVTQRFPDLTAADRDGLRAQWQRCGSTAVDASGDPFRSDSYGLLGNSVDALYIRERLPKLRYDKQLVGVTERESYVKA
For B1, in data set [2], the Kd was roughly 70 µM.
